Measured values: PMC4737498, “An Anti-proteome Nanobody Library Approach Yields a Specific Immunoassay for Trypanosoma congolense Diagnosis Targeting Glycosomal Aldolase” (PLoS Neglected Tropical Diseases, 2016)

Legend:
Conditions in all cases: one partner purified
[1] = molecular target: T1, native T. congolense glycosomal fructose-1,6-bisphosphate aldolase (Trypanosoma congolense (TC13 soluble …, UniProt G0UWE7)); assay: ELISA; homologous sandwich Nb474-ELISA, capture step: Nb474H coated on Nunc plate (0.02 μg/ml in PBS, overnight 4°C), T. congolense soluble proteome, infected sera or secretome added 1 h at 22°C
T1 construct: glycosomal fructose-1,6-bisphosphate aldolase of Trypanosoma congolense, UniProtKB G0UWE7; band at about 40 kDa identified by mass spectrometry; Samples came from different strains (TC13, IL3000 and others); also called TcoALD; native TcoALD; source: endogenous, T. congolense soluble proteome (TC13), sera of T. congolense infected mice, T. congolense IL3000 secretome; in fixed T. congolense …

[2] = molecular target: T2, recombinant T. congolense glycosomal aldolase (Trypanosoma congolense IL3000, UniProt G0UWE7); assay: ELISA; homologous sandwich (Nb474H-Nb474B), capture step: crude soluble proteins of E. coli expressing recombinant aldolase (10 μg/well) on coated Nb474H
T2 construct: His6-tag with a proximal tobacco etch virus cleavage site; Construct synthesised by GenScript; also called TcoALD; recombinant TcoALD; source: E. coli BL21(DE3), pET-21b(+), in crude lysate (18 h post-induction)

[3] = molecular target: T1, native T. congolense glycosomal …; assay: ELISA; homologous sandwich Nb474-ELISA, detection step: Nb474B (0.02 μg/ml, 1 h at 22°C) on antigen captured from T. congolense samples by coated Nb474H; strep-HRP and TMB
[4] = molecular target: T2, recombinant T. congolense glycosomal …; assay: ELISA; homologous sandwich (Nb474H-Nb474B), detection step: Nb474B on recombinant aldolase captured from crude E. coli lysate by coated Nb474H

Binder | binding result [1] | binding result [2] | binding result [3] | binding result [4]
Nb474H (His6-tagged Nanobody 474) (VHH, from an alpaca immunised with T. congolense TC13 soluble proteome; also called capturing Nb; His6-tag Nb; source: E. coli WK6 (pHEN6c), periplasmic extract, purified (His-Select Nickel, size exclusion chromatography)) VHH: QVQLQESGGGLVQPGGSLRLSCAASETALTYYAIGWFRQAPGKEREGVSCISRINSGSGARTDYADSVKGRFTISRDDAKNTVTLQMNSLEPEDTARYYCALDTTDRYDSANGRYYCTISSDTYDYWGQGTQVTVSS | binds | binds | – | –
Nb474B (biotinylated Nanobody 474) (VHH, same Nb as m1; also called detecting Nb; detection Nb) VHH: QVQLQESGGGLVQPGGSLRLSCAASETALTYYAIGWFRQAPGKEREGVSCISRINSGSGARTDYADSVKGRFTISRDDAKNTVTLQMNSLEPEDTARYYCALDTTDRYDSANGRYYCTISSDTYDYWGQGTQVTVSS | – | – | binds | binds
